Measurements from publication PMC2879449 (Biochemistry, 2010).

Target: the molecule itself
Experiment: crystal structure

B1: WlbB, an N-acetyltransferase from Bordetella petrii (enzyme, UniProt A9IH93 1-190, looked up)
chain: MATIHPTAIVDEGARIGAHSRIWHWVHICGGAEIGEGCSLGQNVFVGNRVRIGNRVKIQNNVSVYDNVFLEDDVFCGPSMVFTNVYNPRAAIERKSEYRDTIVRQGATLGANCTVVCGATIGRYAFVGAGAVVNKDVPDFALVVGVPARQIGWMSRHGEQLDLPLRGNAEATCPHTGERYILTDGVCRLA
- stoichiometry N: 3
